{"source": "patent US11306137B2", "about": "“Antibody binding agents that bind Acinetobactor and uses thereof” (priority 2015, dated 2022)", "molecules": {"B1": {"name": "C8: mouse IgG1-kappa monoclonal antibody from hybridoma 9.1C8 (ATCC PTA-122177); light chain SEQ ID NO:2, heavy chain SEQ ID NO:3 (antibody, listed as Mus musculus, V domains shown)", "VH": "EVQLQQSGPELVKPGASVKISCKASGYSFTGYTMNWVKQSHGKSLEWIGRINPYNGDSFYNQKFKGKATLTVDKSSNIAHMEFLSLTSEDSAVYYCGRSGDGPWFAYWGQGTLVTVSA", "VL": "LPLSLPVSLGDQASISCRSSQSIVHNNGNTYLEWYLQKPGQSPKLLIYKVSNRFSGVPDRFSGSGSGTDFTLKISRVEAEDLGVYYCFQGSHVPLTFGAGTKLEIKGSRS"}}, "key": {"[1]": {"tested_on": "A. baumannii HUMC1 uptake by RAW 264.7 macrophages", "test": "Opsonophagocytosis assay (macrophage uptake)", "type": "cell-based", "conditions": "FIG. 6B", "experimental": "RAW 264.7 macrophages (1×10^6 per well) were grown on coverslips in 12-well plates and stimulated with 100 U/mL IFN-γ. Cells adhered to the cover glass overnight in a humidified incubator at 37° C. supplemented with 5% CO2. Cells were washed three times with HBSS and bacteria were added to wells at a ratio of 10:1, bacteria to macrophages, in the presence (or absence) of 10% fetal bovine serum (FBS), either heat-inactivated or complement-active. Plates were briefly centrifuged at 250×g to cohere the bacterial cells to the bottom of the plate and incubated at 37° for 2 hr. Macrophages were washed three times with PBS, fixed with 100% methanol, and Hema 3-stained according to the manufacturer's protocol (Fisher Scientific). To quantitate bacteria counts per macrophage, coverslips were imaged on a Zeiss Axiolmager microscope. Macrophages harboring visible adherent or internalized bacteria were counted and divided by total macrophages to determine the percentage of cells with associated bacteria. The number of bacteria associated with each macrophage was also quantitated and recorded. A minimum of 100 cells per coverslip were counted."}, "A. baumannii HUMC1 [2]": {"tested_on": "A. baumannii HUMC1", "test": "Confocal immunofluorescence surface binding", "conditions": "FIG. 5", "experimental": "To detect surface binding of A. baumannii by purified C8 MAb, mid-log-growth A. baumannii strains were washed twice, resuspended in PBS, stained with NucBlue Reagent (Life Technologies) for 30 min at 37° C., pelleted, and washed again in PBS. Primary antibody, either C8 MAb or Isotype Control IgG1 (R&D Systems, Product #MAB002), was added to 100 μL of bacteria to a final concentration of 100 μg/mL and incubated for 30 min at 37° C. Bacteria were washed twice and resuspended in secondary antibody goat anti-mouse IgG AlexaFluor647 (Life Technologies, Product #A21235) at a final concentration of 2 μg/mL for 20 min at 37° C. After washing twice with PBS, bacteria was resuspended in 50 μL PBS, and 10 μL drops were placed on slides and mounted with cover slips and nail polish. Images were taken using a Spinning Disc Confocal Microscope (Zeiss Axiolmager)."}, "A. baumannii HUMC1 [3]": {"tested_on": "A. baumannii HUMC1", "test": "Blood bacterial density, plasma cytokines and sepsis biomarkers after i.v. infection"}, "A. baumannii HUMC1 [4]": {"tested_on": "A. baumannii HUMC1", "test": "Lung and blood bacterial burden and lung histopathology in aspiration pneumonia", "conditions": "24 hr post-infection"}, "[5]": {"tested_on": "pili preparations from A. baumannii", "test": "Western blot of pili preparations (proteinase K or periodate treated)", "type": "binding", "experimental": "Since it appeared that C8 bound to the pili on the surface of the bacteria, an established protocol was to sheer pili off the bacteria in an attempt to more accurately determine the epitope targeted by C8. To distinguish protein from carbohydrate targets, the pili preparation was divided into three portions: one fraction was treated with proteinase K, one fraction was treated with periodate to degrade carbohydrates, and one fraction was untreated. The pili preparations were run in a western blot and stained with C8 or isotype control MAb."}, "[6]": {"tested_on": "A. baumannii cell surface", "test": "Flow cytometry binding to A. baumannii cell surface", "experimental": "Hybridoma pre-clones were selected for subcloning based on bacterial cell surface reactivity by flow cytometry. Briefly, A. baumannii was passaged to log phase, stained with the bacterial dye SYTO BC (LifeTech #B7277), then stained with pre-clone supernatant from 96-well plates at 4° C., rinsed, and counter-stained with CF 647-conjugated goat anti-mouse IgG (Sigma-Aldrich, #SAB4600182). Control samples were stained with mouse IgG1 isotype control mAb (R&D Systems, #MAB002). Percent positivity was determined by flow cytometry.\nHybridoma cell lines were propagated in 96-well flat-bottom plates in DMEM-20%, and supernatants were harvested from wells for initial flow cytometry screening to identify antibodies that bound to intact bacteria. In brief, A. baumannii isolates were passaged to log phase, stained with the bacterial dye SYTO BC (LifeTech #B7277), and incubated for 1 hr with undiluted supernatants collected from 96-well plates at 4° C. Cells were washed and counter-stained with a secondary antibody, CF647-conjugated goat anti-mouse IgG (Sigma-Aldrich, #SAB4600182). Control samples were stained with a mouse IgG1 isotype control MAb (R&D Systems, #MAB002) as a negative control, and mouse polyclonal HUMC1-immune serum as a positive control for bacterial binding. Hybridomas that tested positive for bacterial binding were subcloned by limiting dilution into 96-well plates to ensure clonality, expanded, and retested to confirm bacterial binding."}, "A. baumannii HUMC1 [7]": {"tested_on": "A. baumannii HUMC1", "test": "In vitro complement susceptibility (bacterial growth in mouse serum)", "type": "cell-based", "conditions": "heat-inactivated or complement-active CD-1 mouse serum; FIG. 6A", "experimental": "Overnight cultures of A. baumannii were subcultured to log-phase, washed in PBS, and resuspended at 1×10^6 CFUs/mL in 3 mL HBSS containing 50% CD-1 mouse serum that had been either heat-inactivated at 57° C. for 30 minutes or not. Tubes were shaken (200 rpm) for 2 hr at 37° C. and bacterial expansion was quantified by serially diluting cultures on TSA plates and counting CFUs."}, "[8]": {"conditions": "22 hr post-infection, relative to controls"}}, "note": "Entries after “also recorded” stand apart in the source; their conditions may differ.", "data": [{"molecule": "B1", "values": [{"measurement": "macrophage uptake of A. baumannii", "setting": "[1]; C8 5 μg/mL, heat-inactivated or complement-active serum", "result": "markedly increased; also recorded: markedly improved macrophage uptake"}, {"measurement": "macrophage uptake of A. baumannii with active complement", "setting": "[1]; C8 MAb plus normal serum with active complement", "result": "highest uptake; also recorded: enhancement was greatest with complement"}, {"measurement": "surface binding by immunofluorescent staining", "setting": "A. baumannii HUMC1 [2]", "result": "confirmed diffuse surface binding"}, {"measurement": "plasma IL-6", "setting": "A. baumannii HUMC1 [3]; 2 hr after infection, FIG. 8B", "result": "significantly reduced"}, {"measurement": "plasma TNF", "setting": "A. baumannii HUMC1 [3]; 2 hr after infection, FIG. 8B", "result": "significantly reduced"}, {"measurement": "anion gap", "setting": "A. baumannii HUMC1 [3]; [8]", "result": "normal"}, {"measurement": "base deficit", "setting": "A. baumannii HUMC1 [3]; [8]", "result": "normal"}, {"measurement": "blood glucose", "setting": "A. baumannii HUMC1 [3]; [8]", "result": "normal"}, {"measurement": "blood pH", "setting": "A. baumannii HUMC1 [3]; [8]", "result": "normal"}, {"measurement": "serum bicarbonate", "setting": "A. baumannii HUMC1 [3]; [8]", "result": "normal"}, {"measurement": "plasma IL-1β", "setting": "A. baumannii HUMC1 [3]; 22 hr post-infection, FIG. 8B", "result": "virtually undetectable"}, {"measurement": "plasma IL-10", "setting": "A. baumannii HUMC1 [3]; 22 hr post-infection, FIG. 8B", "result": "virtually undetectable"}, {"measurement": "blood urea nitrogen (BUN) levels", "setting": "A. baumannii HUMC1 [3]; 22 hr post-infection, FIG. 8C", "result": "baseline"}, {"measurement": "physiology (biomarkers of sepsis)", "setting": "A. baumannii HUMC1 [3]; between 2 and 24 hours, FIG. 8C", "result": "maintained baseline physiology"}, {"measurement": "bacterial density in the blood over time", "setting": "A. baumannii HUMC1 [3]; over the next 20 h, 5 μg i.v., FIG. 8A", "result": "continued to decrease"}, {"measurement": "lower bacterial density in the blood than isotype control", "setting": "A. baumannii HUMC1 [3]; two hours after treatment, 5 μg i.v., FIG. 8A", "result": "1,000 fold"}, {"measurement": "reduction of bacterial burden in the blood vs control mice", "setting": "A. baumannii HUMC1 [4]; 50 μg C8, FIG. 9C", "result": 7, "unit": "log"}, {"measurement": "reduction of bacterial burden in the lungs vs control mice", "setting": "A. baumannii HUMC1 [4]; 50 μg C8, FIG. 9C", "result": 2, "unit": "log"}, {"measurement": "lung histology (H&E)", "setting": "A. baumannii HUMC1 [4]; FIG. 9D-E", "result": "appeared normal; also recorded: maintained normal lung architecture"}, {"measurement": "western blot signal, periodate treated pili fraction", "setting": "[5]; periodate treatment (degrades carbohydrates)", "result": "eliminated completely"}, {"measurement": "western blot signal, proteinase K treated pili fraction", "setting": "[5]; proteinase K treatment", "result": "unchanged"}, {"measurement": "western blot signal, untreated pili fraction", "setting": "[5]; untreated", "result": "large conglomeration at the top of the gel"}, {"measurement": "epitope / target on A. baumannii", "setting": "[5]; western blots and flow binding to a capsule-mutant bacterial strain", "result": "binds to capsular polysaccharide"}, {"measurement": "binding to the cell surface of A. baumannii by flow cytometry", "setting": "[6]; HUMC1 strain", "result": "specifically bound; also recorded: to the same extent as polyclonal immune serum"}, {"measurement": "surface binding to other clinical isolates by flow cytometry", "setting": "[6]; HUMC6, C14, ATCC 17978, AB0071, UH7007 (Table 7)", "result": "representative of 5 other strains; also recorded: Surface binding was confirmed to 4 other diverse clinical isolates"}, {"measurement": "impact on bacterial growth in vitro", "setting": "A. baumannii HUMC1 [7]", "result": "minimal impact"}]}]}
